Reference: the FLAb antibody collection (doi:10.7554/elife.23156)

B1: scFv; the commonest letter at each place (parent)
chain 1: EVKLDETGGGLVQPGRPMKLSCVASGFTFSDYWMNWVRQSPEKGLEWVAQIRNKPYNYETYYSDSVKGRFTISRDDSKSSVYLQMNNLRVEDMGIYYCTGSYYGMDYWGQGTSVTVS
chain 2: DVVMTQTPLSLPVSLGDQASISCRSSQSLVHSNGNTYLRWYLQKPGQSPKVLIYKVSNRFSGVPDRFSGSGSGTDFTLKISRVEAEDLGVYFCSQSTHVPWTFGGGTKLEIK

Key:
fluorescein = variants of: B1; experiment: Kd (Tite-Seq); conditions: with fluorescein; format: scFv 4-4-20, heavy + light
[1] = variants of: B1; experiment: yeast surface expression (ratio to wild type); higher = more expressed; conditions: format: scFv 4-4-20, heavy + light

Variant	Kd (fluorescein)	yeast surface expression [1]
chain 1 EVKLDETGGGLVQPGRPMKLSCVASGFTWSGYWMNWVRQSPEKGLEWVAQIRNKPYNYETYYSDSVKGRFTISRDDSKSSVYLQMNNLRVEDMGIYYCTGSYYGMDYWGQGTSVTVS chain 2 DVVMTQTPLSLPVSLGDQASISCRSSQSLVHSNGNTYLRWYLQKPGQSPKVLIYKVSNRFSGVPDRFSGSGSGTDFTLKISRVEAEDLGVYFCSQSTHVPWTFGGGTKLEIK [chain 1 F29W D31G]	5.37 µM	0.567
chain 1 EVKLDETGGGLVQPGRPMKLSCVASGFTFSDYWMNWVRQSPEKGLEWVAQIRNKPYNYETYYSDSVKGRFTISRDDSKSSVYLQMNNLRVEDMGIYYCTGSYYSMDYSGQGTSVTVS chain 2 DVVMTQTPLSLPVSLGDQASISCRSSQSLVHSNGNTYLRWYLQKPGQSPKVLIYKVSNRFSGVPDRFSGSGSGTDFTLKISRVEAEDLGVYFCSQSTHVPWTFGGGTKLEIK [chain 1 G104S W108S]	≥ 10 µM	0.304
chain 1 EVKLDETGGGLVQPGRPMKLSCVASGFSFMDYWMNWVRQSPEKGLEWVAQIRNKPYNYETYYSDSVKGRFTISRDDSKSSVYLQMNNLRVEDMGIYYCTGSYYGMDYWGQGTSVTVS chain 2 DVVMTQTPLSLPVSLGDQASISCRSSQSLVHSNGNTYLRWYLQKPGQSPKVLIYKVSNRFSGVPDRFSGSGSGTDFTLKISRVEAEDLGVYFCSQSTHVPWTFGGGTKLEIK [chain 1 T28S S30M]	0.00175 µM	0.95
chain 1 EVKLDETGGGLVQPGRPMKLSCVASGFTFSDYWMNWVRQSPEKGLEWVAQIRNKPYNYETYYSDSVKGRFTISRDDSKSSVYLQMNNLRVEDMGIYYCTGLVYGMDYWGQGTSVTVS chain 2 DVVMTQTPLSLPVSLGDQASISCRSSQSLVHSNGNTYLRWYLQKPGQSPKVLIYKVSNRFSGVPDRFSGSGSGTDFTLKISRVEAEDLGVYFCSQSTHVPWTFGGGTKLEIK [chain 1 S101L Y102V]	≥ 10 µM	0.401
chain 1 EVKLDETGGGLVQPGRPMKLSCVASGFTFWVYWMNWVRQSPEKGLEWVAQIRNKPYNYETYYSDSVKGRFTISRDDSKSSVYLQMNNLRVEDMGIYYCTGSYYGMDYWGQGTSVTVS chain 2 DVVMTQTPLSLPVSLGDQASISCRSSQSLVHSNGNTYLRWYLQKPGQSPKVLIYKVSNRFSGVPDRFSGSGSGTDFTLKISRVEAEDLGVYFCSQSTHVPWTFGGGTKLEIK [chain 1 S30W D31V]	≥ 10 µM	0.463
chain 1 EVKLDETGGGLVQPGRPMKLSCVASGFTFSDYWMNHVRQSPEKGLEWVAQIRNKPYNYETYYSDSVKGRFTISRDDSKSSVYLQMNNLRVEDMGIYYCTGSYYGMDYWGQGTSVTVS chain 2 DVVMTQTPLSLPVSLGDQASISCRSSQSLVHSNGNTYLRWYLQKPGQSPKVLIYKVSNRFSGVPDRFSGSGSGTDFTLKISRVEAEDLGVYFCSQSTHVPWTFGGGTKLEIK [chain 1 W36H]	≥ 10 µM	0.522
